Experimental data reported in patent US20240058465A1 (SUTRO BIOPHARMA, published 2024).

Assays:
[1] = biological target: receptor tyrosine kinase orphan receptor 1 (ROR1) on Ntera-2 cells (human, UniProt Q01973 30-937); assay: cell-based or functional assay
human ROR1-ECD = biological target: T1, human ROR1-ECD (human, UniProt Q01973 30-406); assay: SPR (Biacore), antibody captured by anti-Fc, human ROR1-ECD analyte
T1 construct: Bought protein; also called hROR1; ROR1-extracellular domain

[2] = biological target: T2, human ROR1 (hROR1) expressed on cells (human, UniProt Q01973 30-937); assay: cell-based or functional assay
[3] = biological target: T2, human ROR1 (hROR1) expressed on cells; assay: flow cytometry, HCT116-hROR1 cells

Binder | cell killing EC50, NTERA-2 cells [1] [nM] | cell killing Span, NTERA-2 cells [1] [%] | other results
Conjugate 21 (D04-F404-LP32) (antibody, human IgG1, kappa, pAMF at F404 (EU), linked to LP32) heavy: MEVQLVESGGGLVQPGGSLRLSCAASGFNISDYDIHWVRQAPGKGLEWVGGIDPADGSTDYADSVKGRFTISADTSKNTAYLQMNSLRAEDTAVYYCARDYGVYDYWGQGTLVTVSSASTKGPSVFPLAPSSKSTSGGTAALGCLVKDYFPEPVTVSWNSGALTSGVHTFPAVLQSSGLYSLSSVVTVPSSSLGTQTYICNVNHKPSNTKVDKKVEPKSCDKTHTCPPCPAPELLGGPSVFLFPPKPKDTLMISRTPEVTCVVVDVSHEDPEVKFNWYVDGVEVHNAKTKPREEQYNSTYRVVSVLTVLHQDWLNGKEYKCKVSNKALPAPIEKTISKAKGQPREPQVYTLPPSREEMTKNQVSLTCLVKGFYPSDIAVEWESNGQPENNYKTTPPVLDSDGSFLYSKLTVDKSRWQQGNVFSCSVMHEALHNHYTQKSLSLSPGK light: not shown | 2.96 | 97 | 
Conjugate 22 (D04-Y180/F404-LP11) (antibody, human IgG1, kappa, pAMF at Y180 and F404 (EU), each linked to LP11) heavy: MEVQLVESGGGLVQPGGSLRLSCAASGFNISDYDIHWVRQAPGKGLEWVGGIDPADGSTDYADSVKGRFTISADTSKNTAYLQMNSLRAEDTAVYYCARDYGVYDYWGQGTLVTVSSASTKGPSVFPLAPSSKSTSGGTAALGCLVKDYFPEPVTVSWNSGALTSGVHTFPAVLQSSGLSLSSVVTVPSSSLGTQTYICNVNHKPSNTKVDKKVEPKSCDKTHTCPPCPAPELLGGPSVFLFPPKPKDTLMISRTPEVTCVVVDVSHEDPEVKFNWYVDGVEVHNAKTKPREEQYNSTYRVVSVLTVLHQDWLNGKEYKCKVSNKALPAPIEKTISKAKGQPREPQVYTLPPSREEMTKNQVSLTCLVKGFYPSDIAVEWESNGQPENNYKTTPPVLDSDGSFLYSKLTVDKSRWQQGNVFSCSVMHEALHNHYTQKSLSLSPGK light: not shown | > 10 | < 20 | 
Conjugate 1 (D04-Y180/F404-LP1) (antibody, human IgG1, kappa, pAMF at Y180 and F404 (EU), each linked to LP1) heavy: MEVQLVESGGGLVQPGGSLRLSCAASGFNISDYDIHWVRQAPGKGLEWVGGIDPADGSTDYADSVKGRFTISADTSKNTAYLQMNSLRAEDTAVYYCARDYGVYDYWGQGTLVTVSSASTKGPSVFPLAPSSKSTSGGTAALGCLVKDYFPEPVTVSWNSGALTSGVHTFPAVLQSSGLSLSSVVTVPSSSLGTQTYICNVNHKPSNTKVDKKVEPKSCDKTHTCPPCPAPELLGGPSVFLFPPKPKDTLMISRTPEVTCVVVDVSHEDPEVKFNWYVDGVEVHNAKTKPREEQYNSTYRVVSVLTVLHQDWLNGKEYKCKVSNKALPAPIEKTISKAKGQPREPQVYTLPPSREEMTKNQVSLTCLVKGFYPSDIAVEWESNGQPENNYKTTPPVLDSDGSFLYSKLTVDKSRWQQGNVFSCSVMHEALHNHYTQKSLSLSPGK light: not shown | 0.085 | 56 | 
D04-Y180/F404-LP32 (printed under conjugate number 21, DAR 3.85) (antibody, human IgG1, kappa, pAMF at Y180 and F404 (EU), each linked to LP32) heavy: MEVQLVESGGGLVQPGGSLRLSCAASGFNISDYDIHWVRQAPGKGLEWVGGIDPADGSTDYADSVKGRFTISADTSKNTAYLQMNSLRAEDTAVYYCARDYGVYDYWGQGTLVTVSSASTKGPSVFPLAPSSKSTSGGTAALGCLVKDYFPEPVTVSWNSGALTSGVHTFPAVLQSSGLSLSSVVTVPSSSLGTQTYICNVNHKPSNTKVDKKVEPKSCDKTHTCPPCPAPELLGGPSVFLFPPKPKDTLMISRTPEVTCVVVDVSHEDPEVKFNWYVDGVEVHNAKTKPREEQYNSTYRVVSVLTVLHQDWLNGKEYKCKVSNKALPAPIEKTISKAKGQPREPQVYTLPPSREEMTKNQVSLTCLVKGFYPSDIAVEWESNGQPENNYKTTPPVLDSDGSFLYSKLTVDKSRWQQGNVFSCSVMHEALHNHYTQKSLSLSPGK light: not shown | > 10 | < 20 | 
SRP2188-F06 (antibody, IgG1, V domains shown, IgG1 with trastuzumab LC; HIS- and FLAG-tagged; cell-free expressed) VH: EVQLVESGGGLVQPGGSLRLSCAASGFNILDYDIHWVRQAPGKGLEWVGGIDPDDGATDYADSVKGRFTISADTSKNTAYLQMNSLRAEDTAVYYCARDYGVFDYWGQGTLVTVSS VL: not shown |  |  | Kd (human ROR1-ECD): 0.384 nM; koff (human ROR1-ECD): 0.000357 s⁻¹; kon (human ROR1-ECD): 931000 M⁻¹ s⁻¹; Mino Nb-PBD, drug-conjugated 2° antibody Cell Killing IC50 [2]: 0.00055 nM; Mino Nb-PBD, drug-conjugated 2° antibody Cell Killing Span [2]: 75%; Bmax (MFI) [3]: 10200 MFI; Kd [3]: 0.03 nM
